Data set [1] has as its system KB tumor xenografts. The data set can be described thus: KB tumor xenograft in nu/nu mice. The following applies: EC2629 0.3 µmol/kg iv SIW x 2 weeks. It counts as in vivo. The method, then:
(§1) Four- to eight-week-old female nu/nu mice and rats (Harlan Sprague Dawley, Inc.), were maintained on a standard 12-h light–dark cycle and fed ad libitum with a low-folate chow (Harlan Teklad diet #TD.01013, Madison, WI) for the duration of dosing and 1 week post dosing schedule. Mice and rats were then switched to Teklad Global 18% Rodent diet (Harlan Teklad diet #2018S) during the monitoring phase of the study. Parental KB, KB-CR2000 or KB-PR10 cells (1 × 10^6/100 µL per nu/nu mouse and 5 × 10^6/200 µL per nu/nu rat) were injected into the subcutis of the dorsal medial area. Mice were divided into groups of 5 and rats in groups of 3–4, and freshly prepared test articles were injected through the lateral tail vein under sterile conditions in a volume of 200 μL/20 g of PBS. In mice, intravenous treatments typically initiated on day 7 PTI when KB tumors were approximately 111–168 mm^3 in volume, on day 5 PTI when the KB-PR tumors were about 205–243 mm^3, and on day 6 PTI when the KB-CR tumors were around 98 to 168 mm^3. Treatments in rats were started on day 10 PTI when KB tumors were approximately 412–704 mm^3 in volume.
Animals in the control groups received no treatment. Growth of each subcutaneous tumor was followed by measuring the tumor 3 times per week during treatment and twice per week thereafter, until a maximum volume of 1,500 mm^3 for mice and 15,000 mm^3 for rats were reached. Tumors were measured in two perpendicular directions using Vernier calipers, and their volumes were calculated as V = 0.5 × L × W^2, where L = measurement of longest axis in mm and W = measurement of axis perpendicular to L in mm[16]. As a general measure of gross toxicity, changes in body weights were determined on the same schedule as tumor volume measurements. Survival of animals was monitored daily. Animals that were moribund (or unable to reach food or water) were euthanized by CO2 asphyxiation. Individual tumor response endpoints were reported in terms of tumor volume change. A partial response (PR) was defined as volume regression > 50% but with measurable tumor (> 2 mm^3) remaining at all times. Complete response (CR) was defined as a disappearance of measurable tumor mass (< 2 mm^3) at some point within 90 days after tumor implantation. Cures were defined as CRs without tumor regrowth within the 90-day study time frame.

Data set [2] relates to KB tumor xenografts. The data set can be described thus: KB tumor xenograft in nu/nu rats. Format: in vivo. The following applies: EC2629 0.15 µmol/kg iv SIW x 2 weeks. The method, then: as §1, with “In mice, intravenous treatments typically initiated on day 7 PTI when KB tumors were approximately 111–168 mm^3 in volume, on day 5 PTI when the KB-PR tumors were about 205–243 mm^3, and on day 6 PTI when the KB-CR tumors were around 98 to 168 mm^3. Treatments in rats were started on day 10 PTI when KB tumors were approximately 412–704 mm^3 in volume.” left out
Animals in the control groups received no treatment. […] Tumors were measured in two perpendicular directions using Vernier calipers, and their volumes were calculated as V = 0.5 × L × W^2, where L = measurement of longest axis in mm and W = measurement of axis perpendicular to L in mm[16]. As a general measure of gross toxicity, changes in body weights were determined on the same schedule as tumor volume measurements. Survival of animals was monitored daily. […]

Data set [3] is described as follows: Plasma protein binding (ultrafiltration), rat. Format: in vitro ADME. The following applies: 37 °C. Here is the method:
(§2) Plasma ultrafiltration was used for determination of free and protein bound fractions of EC2629 and EC2491. Samples were extracted and analyzed using fit-for-purpose bioanalytical methods. Briefly, 500 nM EC2629 or EC2491 was spiked into plasma maintained at 37 °C prior to plasma ultrafiltration. Plasma spiked with 500 nM EC2629 or EC2491 was allowed to equilibrate at 37 °C for 30 min prior to processing. Next, 50 μL of plasma was transferred to a clean 1.2 mL plate stored at 2–8 °C for further processing. The remaining plasma sample volumes were transferred to 30 Kd MWCO PES filter to generate plasma ultrafiltrate by centrifugation at 10,000×g for 20 min. After which, 50 μL of each plasma ultrafiltrate was transferred to separate wells in a clean 1.2 mL plate. To all spiked plasma samples, 50 μL of blank plasma ultrafiltrate was added. 50 μL of blank plasma was added to all experimental ultrafiltrate samples. These blank matrix additions normalized the matrix effects for protein binding determination. Samples were then extracted using protein precipitation with a 3:1 ratio of acetonitrile after addition of internal standard. The supernatant transferred to a new plate, evaporated, and reconstituted prior to LC–MS/MS analysis.

Data set [4] can be described thus: Plasma protein binding (ultrafiltration), dog. Format: in vitro ADME. The following applies: 37 °C. Here is the method:
as §2

Data set [5] can be described thus: Plasma protein binding (ultrafiltration), human. Format: in vitro ADME. The following applies: 37 °C. Here is the method:
as §2

Data set [6] in a line: Plasma protein binding (ultrafiltration), across all species. Format: in vitro ADME. The following applies: rat, mouse, dog, human, 37 °C, read-out: plasma protein binding, range across all species. Here is the method: as §2
A further data set can be described thus: Plasma stability, rat. The following applies: 500 nM, 37 °C, 2 h. It counts as in vitro ADME. The method, then: (§3) Whole blood and plasma stability were determined for EC2629 and EC2491 at a concentration of 500 nM. Samples were extracted and analyzed using fit-for-purpose bioanalytical methods. EC2629 or EC2491 was spiked into 1 mL whole blood or plasma maintained at 37 °C for 30 min prior to use . Fifty µl aliquots were then removed at defined timepoints and stored in a 1.2 mL extraction plate prior to analysis. Samples were then extracted using protein precipitation with a 3:1 ratio of acetonitrile after addition of internal standard. The supernatant was then transferred to a new plate, evaporated, and reconstituted prior to LC–MS/MS analysis.

A short description of the next data set: Plasma stability, mouse. The following applies: 500 nM, 37 °C, 2 h. It counts as in vitro ADME. Here is the method: as §3
The nature of another data set: Plasma stability, human. Format: in vitro ADME. The following applies: 500 nM, 37 °C, 2 h. Here is the method:
as §3

Data set [7] can be described thus: Whole blood stability, rat. The following applies: 37 °C, after two hours, read-out: percent remaining in whole blood. It counts as in vitro ADME. The method, then:
as §3

The nature of data set [8]: Whole blood stability, mouse. It counts as in vitro ADME. The following applies: 500 nM, 37 °C, two hours, mouse blood. The method, then: as §3
The nature of data set [9]: Whole blood stability, dog. It counts as in vitro ADME. The following applies: 37 °C, after two hours, read-out: percent remaining in whole blood. The method, then: as §3
Data set [10] can be described thus: Whole blood stability, human. It counts as in vitro ADME. The following applies: 500 nM, 37 °C, two hours, human blood. The method, then: as §3

Regarding `C=C1C[C@H]2C=Nc3cc(OCCCCCOc4cc(N)c(C(=O)N5CC(=C)C[C@H]5C5OCCN5C(=O)OCC(C)(C)SSCCC(=O)NCCNC(=O)CCOCCOCCOCCOCCNC(=O)CCN5C(=O)CC(SC[C@H](NC(=O)[C@H](CC(=O)O)NC(=O)[C@H](CC(=O)O)NC(=O)[C@H](CCCNC(=N)N)NC(=O)[C@H](CC(=O)O)NC(=O)CC[C@H](NC(=O)c6ccc(NCc7cnc8nc(N)[nH]c(=O)c8n7)cc6)C(=O)O)C(=O)O)C5=O)cc4OC)c(OC)cc3C(=O)N2C1` (stereo partly shown) [EC2629], the body weight change entry in the data set with KB tumor xenografts [1] and with KB tumor xenografts [2] was “did not lose any significant weight” throughout. Moreover, the fraction unbound at 30 min, 500 nM is 0.026 in [3], 0.055 in data set [4], 0.128 in data set [5] and 0.026 to 0.128 in data set [6]. Also, the plasma stability entry is recorded as “stable” in “Plasma stability, rat”; “stable” in “Plasma stability, mouse”; “stable” in “Plasma stability, human”. In addition, the figures for the fraction remaining at 2 h, 500 nM in data set [7] and in data set [9] were 75.1% and 75.8%, respectively. Also, the whole blood stability result in [8] and in data set [10] was “no observed degradation” throughout.

For the origin of these results see paper PMC7391724 (Scientific Reports, 2020).
